From patent US20210340217A1, “NOVEL PEPTIDES AND COMBINATION OF PEPTIDES FOR USE IN IMMUNOTHERAPY AGAINST OVARIAN CANCER AND OTHER CANCERS” (Immatics Biotechnologies GmbH, priority 2017, published 2021) come the findings set out here.

One assay deals with CD8+ T cells. The assay is described as follows: In vitro immunogenicity for MHC class I presented peptides (in vitro priming of CD8+ T cells with aAPCs, pMHC multimer readout). In kind it is cell-based, human.
Settings: not given
The protocol:
In order to obtain information regarding the immunogenicity of the TUMAPs of the present invention, the inventors performed investigations using an in vitro T-cell priming assay based on repeated stimulations of CD8+ T cells with artificial antigen presenting cells (aAPCs) loaded with peptide/MHC complexes and anti-CD28 antibody. […]
Generation of pMHC/anti-CD28 coated beads, T-cell stimulations and readout was performed in a highly defined in vitro system using four different pMHC molecules per stimulation condition and 8 different pMHC molecules per readout condition. […]
800.000 beads/200 μl were coated in 96-well plates in the presence of 4×12.5 ng different biotin-pMHC, washed and 600 ng biotin anti-CD28 were added subsequently in a volume of 200 μl. […] For the pMHC multimer readout using 8 different pMHC molecules per condition, a two-dimensional combinatorial coding approach was used as previously described (Andersen et al., 2012) with minor modifications encompassing coupling to 5 different fluorochromes. […] Peptide specific cells were calculated as percentage of total CD8+ cells. […] In vitro priming of specific multimer+ CD8+ lymphocytes was detected by comparing to negative control stimulations.
On to “774 (VYVDDIYVI; listed as Homo sapiens) [compound 774]”, for which the “Wells positive [%]” value is given as “+++ (50%-69% = +++)”. Same read-out and setting: the value for “773 (ALYGKLLKL; listed as Homo sapiens) [compound 773]” was “+++ (50%-69% = +++)”.

Another assay has as its target HLA-A*24:02 (Homo sapiens, UniProt P04439, D101N/D140Y/D185E/E176V/E190D/F33S/G103R/G107R/I119L/I121M/I306V/K335N/L105A/L180Q/L300P/N151K/N90K/Q86E/Q94H/R106L/R138H/R89G/T104I/T345S/V100E/W191G/Y123F). The assay is described as follows: MHC binding assay (UV-ligand exchange, beta2m ELISA). The settings on record: peptide exchange yield. The method, boiled down: (§1)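 Peptide–MHC complexes formed by UV-induced exchange of a UV-cleavable peptide for the test peptide. Exchange yield measured by streptavidin-capture ELISA detecting β2m (HRP anti-β2m, TMB, A450) on 100-fold diluted samples. Quantified against refolded HLA-A*02:01/MLA-001 standards (15-500 ng/ml).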
A general note: ELISA stands for enzyme-linked immunosorbent assay.
Consider “10 (RYSDSVGRVSF; listed as Homo sapiens) [compound 10]”, for which the Peptide exchange result is “++++ (>75% = ++++)”.

With “76 (KYVAELSLL; listed as Homo sapiens) [compound 76]”, the Peptide exchange result is on record as “++++ (>75% = ++++)”. Consider “12 (KYEKIFEML; listed as Homo sapiens) [compound 12]”, for which the Peptide exchange entry was “++++ (>75% = ++++)”. On the same count and under the same terms, with “16 (IYSPQFSRL; listed as Homo sapiens) [compound 16]” the entry was “++++ (>75% = ++++)”; with “11 (SYSDLHYGF; listed as Homo sapiens) [compound 11]”, “++++ (>75% = ++++)”. Consider “249 (VYTPTLGTL; listed as Homo sapiens) [compound 249]”, for which the Peptide exchange result is recorded as “++++ (>75% = ++++)”. As to “80 (TAYMVSVAAF; listed as Homo sapiens) [compound 80]”, the Peptide exchange entry was “+++ (>50 = +++)”.

Regarding “13 (VYTFLSSTL; listed as Homo sapiens) [compound 13]”, the Peptide exchange entry was “++++ (>75% = ++++)”.

Turning to “246 (RYLAVVHAVF; listed as Homo sapiens) [compound 246]”, the Peptide exchange result is recorded as “++++ (>75% = ++++)”. Consider “78 (SFAPRSAVF; listed as Homo sapiens) [compound 78]”, for which the Peptide exchange result is “++++ (>75% = ++++)”. In the case of “14 (FYFPTPTVL; listed as Homo sapiens) [compound 14]”, the Peptide exchange entry was “++++ (>75% = ++++)”. For “82 (SYFRGFTLI; listed as Homo sapiens) [compound 82]”, the Peptide exchange result is on record as “++++ (>75% = ++++)”. On the same count and under the same terms, with “18 (KYPVHIYRL; listed as Homo sapiens) [compound 18]” the entry was “++++ (>75% = ++++)”; with “17 (RFTTMLSTF; listed as Homo sapiens) [compound 17]”, “++++ (>75% = ++++)”.

With “77 (RYGPVFTV; listed as Homo sapiens) [compound 77]”, the Peptide exchange entry was “++++ (>75% = ++++)”. As to “79 (SYNEHWNYL; listed as Homo sapiens) [compound 79]”, the Peptide exchange entry is given as “++++ (>75% = ++++)”. “19 (KYVKVFHQF; listed as Homo sapiens) [compound 19]”: the Peptide exchange entry is “++++ (>75% = ++++)”.

For “15 (VYHDDKQPTF; listed as Homo sapiens) [compound 15]”, the Peptide exchange result is recorded as “++++ (>75% = ++++)”.

Another assay concerns the target HLA-A*01:01 (Homo sapiens, UniProt P04439, A114D/A174V/A182V/D101N/D185E/E176A/E190D/L180R/Q94H/R68K/S129P/T187R/V100A/V91M/W191G). Described as above. Particulars: peptide exchange yield. The method, boiled down:
as §1
Turning to “289 (RWEKTDLTY; listed as Homo sapiens) [compound 289]”, the Peptide exchange result was “++ (>20% = ++)”. Turning to “288 (SPVTSVHGGTY; listed as Homo sapiens) [compound 288]”, the Peptide exchange entry is “++ (>20% = ++)”. On the same count and under the same terms, the value for “112 (TVTGAEQIQY; listed as Homo sapiens) [compound 112]” was “++ (>20% = ++)”; that for “291 (ETIRSVGYY; listed as Homo sapiens) [compound 291]” was “+++ (>50 = +++)”. With “292 (NVTMKVVSVLY; listed as Homo sapiens) [compound 292]”, the Peptide exchange entry was “+++ (>50 = +++)”. Still for that read-out and setting: the value for “114 (VMEQSAGIMY; listed as Homo sapiens) [compound 114]” was “++ (>20% = ++)”; that for “290 (DMDEEIEAEY; listed as Homo sapiens) [compound 290]” was “++ (>20% = ++)”. “116 (VLLDEGAMLLY; listed as Homo sapiens) [compound 116]”: the Peptide exchange entry was “++ (>20% = ++)”.

Consider “115 (FVDNQYWRY; listed as Homo sapiens) [compound 115]”, for which the Peptide exchange result is “+++ (>50 = +++)”. Take “113 (QLDSNRLTY; listed as Homo sapiens) [compound 113]”: the Peptide exchange result is on record as “+++ (>50 = +++)”.

As to “31 (LLDEGAMLLY; listed as Homo sapiens) [compound 31]”, the Peptide exchange entry was “++++ (>75% = ++++)”.
